Publication PMC10940162

How the values were obtained:
[1] = molecular target: porcine brain tubulin (microtubules) (porcine)
[2] = molecular target: porcine brain tubulin (microtubules) (porcine); test: in vitro reconstitution with TIRF microscopy; microtubules nucleated from and anchored at γ-TuC (GCP3–GFP) held by anti-GFP nanobody; 25 µM tubulin, 80 mM KCl, MRB80, 30 °C; 5 nM SNAP–AF647–CAMSAP3, 5 nM SNAP–AF647–CAMSAP1 or 40 nM mCherry–CAMSAP2; scored over 10 min
[3] = molecular target: γ-tubulin-containing complexes (complete and incomplete γ-TuRC) purified using GCP3–GFP–SII (human (endogenous in HEK293T)) (UniProt Q96CW5); test: single-molecule colocalisation by TIRF microscopy; γ-TuC–GFP held on the coverslip by biotinylated anti-GFP nanobody; with free tubulin (17.5 µM, 50 mM KCl, 30 °C); the sentence does not tell whether the NPF was premixed
Sequence of UniProt Q96CW5 (Q96CW5 whole entry, looked up, one chain of several): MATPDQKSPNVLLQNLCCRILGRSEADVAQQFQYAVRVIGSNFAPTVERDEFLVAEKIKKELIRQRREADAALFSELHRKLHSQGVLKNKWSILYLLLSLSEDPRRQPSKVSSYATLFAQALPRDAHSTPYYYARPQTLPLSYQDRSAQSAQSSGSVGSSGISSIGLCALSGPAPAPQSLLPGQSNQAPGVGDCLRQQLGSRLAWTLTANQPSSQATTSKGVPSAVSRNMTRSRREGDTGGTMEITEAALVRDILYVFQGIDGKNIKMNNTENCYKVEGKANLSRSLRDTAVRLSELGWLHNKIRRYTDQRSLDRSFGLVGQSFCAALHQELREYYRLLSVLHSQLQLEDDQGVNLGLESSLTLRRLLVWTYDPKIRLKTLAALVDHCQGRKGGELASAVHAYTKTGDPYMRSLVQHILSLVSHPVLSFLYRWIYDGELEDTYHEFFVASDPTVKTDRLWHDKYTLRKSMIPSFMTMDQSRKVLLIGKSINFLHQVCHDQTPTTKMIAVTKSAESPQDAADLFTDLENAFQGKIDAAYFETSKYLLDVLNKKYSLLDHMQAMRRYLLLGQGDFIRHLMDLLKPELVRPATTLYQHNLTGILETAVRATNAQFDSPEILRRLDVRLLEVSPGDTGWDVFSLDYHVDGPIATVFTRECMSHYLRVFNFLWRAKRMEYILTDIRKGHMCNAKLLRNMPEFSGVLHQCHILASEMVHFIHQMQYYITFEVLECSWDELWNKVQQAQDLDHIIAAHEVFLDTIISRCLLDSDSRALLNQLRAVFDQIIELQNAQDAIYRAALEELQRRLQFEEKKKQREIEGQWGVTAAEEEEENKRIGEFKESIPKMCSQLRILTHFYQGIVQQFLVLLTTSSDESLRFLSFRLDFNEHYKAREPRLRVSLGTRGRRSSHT

[4] = molecular target: γ-tubulin-containing complexes (complete and incomplete γ-TuRC) purified using GCP3–GFP–SII (human (endogenous in HEK293T)) (UniProt Q96CW5); test: single-molecule colocalisation by TIRF microscopy; NPF pre-incubated with γ-TuC–GFP or GFP control ('Premix'), then held on the coverslip by biotinylated anti-GFP nanobody; without tubulin
[5] = molecular target: γ-tubulin-containing complexes (complete and incomplete γ-TuRC) purified using GCP3–GFP–SII (human (endogenous in HEK293T)) (UniProt Q96CW5); test: single-molecule colocalisation by TIRF microscopy; NPF pre-incubated with γ-TuC–GFP in solution ('Premix'), then held on the coverslip by biotinylated anti-GFP nanobody; with 17.5 µM tubulin, 50 mM KCl, MRB80, 30 °C
[6] = molecular target: γ-tubulin-containing complexes (complete and incomplete γ-TuRC) purified using GCP3–GFP–SII (human (endogenous in HEK293T)) (UniProt Q96CW5)
[7] = molecular target: porcine brain tubulin (microtubules) (porcine); test: in vitro reconstitution with TIRF microscopy; as a7 with 5 nM SNAP–AF647–CAMSAP3 and 200 nM chTOG–mCherry (not premixed)
[8] = molecular target: porcine brain tubulin (microtubules) (porcine); remark: listed apart in the source
[9] = molecular target: porcine brain tubulin (microtubules) (porcine); test: in vitro reconstitution with TIRF microscopy; as a7 with 5 nM SNAP–AF647–CAMSAP3 and 30 nM mCherry–CLASP2 (pre-incubated with γ-TuC)
[10] = molecular target: porcine brain tubulin (microtubules) (porcine); test: in vitro reconstitution with TIRF microscopy; microtubules nucleated from and anchored at γ-TuC (GCP3–GFP) held by anti-GFP nanobody; 25 µM tubulin, 80 mM KCl, MRB80, 30 °C; 5 nM SNAP–AF647–CAMSAP3, 5 nM SNAP–AF647–CAMSAP1 or 40 nM mCherry–CAMSAP2; scored over 10 min; remark: listed apart in the source
[11] = molecular target: porcine brain tubulin (microtubules) (porcine); test: in vitro reconstitution with TIRF microscopy; as a7 with 5 nM SNAP–AF647–CAMSAP3 and 30 nM mCherry–CDK5RAP2 (pre-incubated with γ-TuC)
[12] = molecular target: γ-tubulin-containing complexes (complete and incomplete γ-TuRC) purified using GCP3–GFP–SII (human (endogenous in HEK293T)) (UniProt Q96CW5); test: single-molecule colocalisation by TIRF microscopy; γ-TuC–GFP held on the coverslip by biotinylated anti-GFP nanobody; with free tubulin (17.5 µM, 50 mM KCl, 30 °C); the sentence does not tell whether the NPF was premixed; remark: listed apart in the source
[13] = molecular target: γ-tubulin-containing complexes (complete and incomplete γ-TuRC) purified using GCP3–GFP–SII (human (endogenous in HEK293T)) (UniProt Q96CW5); test: single-molecule colocalisation by TIRF microscopy; NPF pre-incubated with γ-TuC–GFP or GFP control ('Premix'), then held on the coverslip by biotinylated anti-GFP nanobody; without tubulin; remark: listed apart in the source

SNAP–AF647–CAMSAP1 (from UniProt Q5T5Y3 1-1602) (natural protein)
γ-TuC displacement frequency (microtubules released among γ-TuC-anchored minus ends colocalizing with the CAMSAP) [1]: 5% | percent of γ-TuC-nucleated microtubules with CAMSAP at the minus end [2]: 25%

chTOG–mCherry (from UniProt Q14008 1-2032) (natural protein)
percent of chTOG-positive puncta colocalizing with γ-TuC [3]: 6% | percent of chTOG-positive puncta colocalizing with γ-TuC [4]: 28%

mCherry–CDK5RAP2 (from UniProt Q96SN8 1-1893) (natural protein)
percent of CDK5RAP2-positive puncta colocalizing with γ-TuCs [3]: 13% | percent of γ-TuCs colocalizing with CDK5RAP2 [5]: 38% | microtubule nucleation efficiency of γ-TuC (percent of γ-TuCs nucleating within 10 min), mCherry–CDK5RAP2 pre-incubated with γ-TuCs [6]: 35% | percent of CDK5RAP2-positive puncta colocalizing with γ-TuCs [4]: 41% | percent of γ-TuCs colocalizing with CDK5RAP2 [4]: 30%

B1: SNAP–AF647–CAMSAP3 (natural protein)
chain: MVEAAPAGSGPLRRTFLVPEIKSLDQYDFSRAKAAASLAWVLRAAFGGAEHVPPELWEPFYTDQYAQEHVKPPVTRLLLSAELYCRAWRQALPQLEPSPSPSALLALLARRGTVPSLPEHPVREADLKHQPILMGAHLAVIDALMVAFSFEWTKTLPGPLALSSLEHKLLFWVDTTVRRLQEKTEQEAAQRASPAAPLDGASPAQPSIRYRKDRAIARRAPCFPNVTTLQDLASGAALAATIHCYCPQLLRLEEVCLKDPMSVADSLYNLQLVQDFCASHLPRGCPLSLEDLLYVPPPLKVNLVVLLAEMYMCFEVLKPDFVQAKDLPDGHAVSPRNTETVPSQNNSGSSSPVFNFRHPLLSPGGPQSPLRGSTGSLKSSPSMSHMEALGKAWNRQLSRPLSQAVSFSTPFGLDSDVDVVMGDPVLLRSVSSDSLGPPRPVSTSSRNSAQPAPESGDLPTIEEALQIIHSAEPRLLPDGAADGSFYLHSPEGLSKPPLSPYPPEGASKPLSDRLNKAPIYISHPENPSKSSPCSTGEILKPPPPSEGSPKAVASSPAANNSEVKMTSFAERKKQLVKAEAESGLGSPTSTPVAPEALSSEMSELGARLEEKRRAIEAQKRRIEAIFAKHRQRLGKSAFLQVQPREAAGEAEEEAELGSVPGGERPAGEGQGEPSLRHKSVTFSPDLGPVPPEGLGDYNRAVSKLSAALSSLQRDMQRLTDQQQRLLAPPEAPGPAPPPAAWVIPGPATGPKAASPSPARRAPAARRSPGPGPSPTPRSPKHARPAELKLAPLTRVLTPPHDVDSLPHLRKFSPSQVPVQTRSSILLSEGTPPEEPTTKPALIEIPLASLGEPAADEEGDGSPPGAEDSLEEEASSEGEPRSGLGFFYKDEDKPEDEMAQKRASLLERQQRRVEEARRRKQWQEAEKEQKREEAARLAQEAPGLAFTTPVVASAAPVATLAPTTRAMAPAEEEVGPRRGDFTRLEYERRAQLKLMDDLDKVLRPRASGTGGPGRGGRRATRPRSGCCDDSALARSPARGLLGSRLSKVYSQSTLSLSTVANEAPNNLGVKRPTSRAPSPSGLMSPSRLPGSRERDWENGSNASSPASVPEYTGPRLYKEPSAKSNKFIIHNALSHCCLAGKVNEPQKNRILEEIEKSKANHFLILFRDSSCQFRALYTLSGETEELSRLAGYGPRTVTPAMVEGIYKYNSDRKRFTQIPAKTMSMSVDAFTIQGHLWQSKKPTTPKKGGGTPK
modifications: Alexa Fluor 647 dye on the SNAP tag
percent of γ-TuC-nucleated microtubules with CAMSAP at the minus end [7]: 25% | percentage of microtubules released from γ-TuCs with SNAP–AF647–CAMSAP3 [8]: 15% | percent of γ-TuC-nucleated microtubules with CAMSAP at the minus end [9]: 35% | percent of γ-TuC-nucleated microtubules with CAMSAP at the minus end [10]: 30% | percent of γ-TuC-nucleated microtubules with CAMSAP at the minus end [11]: 3% | γ-TuC displacement frequency (microtubules released among γ-TuC-anchored minus ends colocalizing with the CAMSAP) [1]: 40%

B2: mCherry–CAMSAP2 (natural protein)
chain: MGDAADPREMRKTFIVPAIKPFDHYDFSRAKIACNLAWLVAKAFGTENVPEELQEPFYTDQYDQEHIKPPVVNLLLSAELYCRAGSLILKSDAAKPLLGHDAVIQALAQKGLYVTDQEKLVTERDLHKKPIQMSAHLAMIDTLMMAYTVEMVSIEKVIACAQQYSAFFQATDLPYDIEDAVMYWINKVNEHLKDIMEQEQKLKEHHTVEAPGGQKSPSKWFWKLVPARYRKEQTLLKQLPCIPLVENLLKDGTDGCALAALIHFYCPDVVRLEDICLKETMSLADSLYNLQLIQEFCQEYLNQCCHFTLEDMLYAASSIKSNYLVFMAELFWWFEVVKPSFVQPRVVRPQGAEPVKDMPSIPVLNAAKRNVLDSSSDFPSSGEGATFTQSHHHLPSRYSRPQAHSSASGGIRRSSSMSYVDGFIGTWPKEKRSSVHGVSFDISFDKEDSVQRSTPNRGITRSISNEGLTLNNSHVSKHIRKNLSFKPINGEEEAESIEEELNIDSHSDLKSCVPLNTNELNSNENIHYKLPNGALQNRILLDEFGNQIETPSIEEALQIIHDTEKSPHTPQPDQIANGFFLHSQEMSILNSNIKLNQSSPDNVTDTKGALSPITDNTEVDTGIHVPSEDIPETMDEDSSLRDYTVSLDSDMDDASKFLQDYDIRTGNTREALSPCPSTVSTKSQPGSSASSSSGVKMTSFAEQKFRKLNHTDGKSSGSSSQKTTPEGSELNIPHVVAWAQIPEETGLPQGRDTTQLLASEMVHLRMKLEEKRRAIEAQKKKMEAAFTKQRQKMGRTAFLTVVKKKGDGISPLREEAAGAEDEKVYTDRAKEKESQKTDGQRSKSLADIKESMENPQAKWLKSPTTPIDPEKQWNLASPSEETLNEGEILEYTKSIEKLNSSLHFLQQEMQRLSLQQEMLMQMREQQSWVISPPQPSPQKQIRDFKPSKQAGLSSAIAPFSSDSPRPTHPSPQSSNRKSASFSVKSQRTPRPNELKITPLNRTLTPPRSVDSLPRLRRFSPSQVPIQTRSFVCFGDDGEPQLKESKPKEEVKKEELESKGTLEQRGHNPEEKEIKPFESTVSEVLSLPVTETVCLTPNEDQLNQPTEPPPKPVFPPTAPKNVNLIEVSLSDLKPPEKADVPVEKYDGESDKEQFDDDQKVCCGFFFKDDQKAENDMAMKRAALLEKRLRREKETQLRKQQLEAEMEHKKEETRRKTEEERQKKEDERARREFIRQEYMRRKQLKLMEDMDTVIKPRPQVVKQKKQRPKSIHRDHIESPKTPIKGPPVSSLSLASLNTGDNESVHSGKRTPRSESVEGFLSPSRCGSRNGEKDWENASTTSSVASGTEYTGPKLYKEPSAKSNKHIIQNALAHCCLAGKVNEGQKKKILEEMEKSDANNFLILFRDSGCQFRSLYTYCPETEEINKLTGIGPKSITKKMIEGLYKYNSDRKQFSHIPAKTLSASVDAITIHSHLWQTKRPVTPKKLLPTKA
percent of γ-TuC-nucleated microtubules with CAMSAP at the minus end [10]: 15% | γ-TuC displacement frequency (microtubules released among γ-TuC-anchored minus ends colocalizing with the CAMSAP) [1]: 90%

B3: mCherry–CLASP2 (natural protein)
chain: MAMGDDKSFDDEESVDGNRPSSAASAFKVPAPKTSGNPANSARKPGSAGGPKVGGASKEGGAGAVDEDDFIKAFTDVPSIQIYSSRELEETLNKIREILSDDKHDWDQRANALKKIRSLLVAGAAQYDCFFQHLRLLDGALKLSAKDLRSQVVREACITVAHLSTVLGNKFDHGAEAIVPTLFNLVPNSAKVMATSGCAAIRFIIRHTHVPRLIPLITSNCTSKSVPVRRRSFEFLDLLLQEWQTHSLERHAAVLVETIKKGIHDADAEARVEARKTYMGLRNHFPGEAETLYNSLEPSYQKSLQTYLKSSGSVASLPQSDRSSSSSQESLNRPFSSKWSTANPSTVAGRVSAGSSKASSLPGSLQRSRSDIDVNAAAGAKAHHAAGQSVRSGRLGAGALNAGSYASLEDTSDKLDGTASEDGRVRAKLSAPLAGMGNAKADSRGRSRTKMVSQSQPGSRSGSPGRVLTTTALSTVSSGVQRVLVNSASAQKRSKIPRSQGCSREASPSRLSVARSSRIPRPSVSQGCSREASRESSRDTSPVRSFQPLASRHHSRSTGALYAPEVYGASGPGYGISQSSRLSSSVSAMRVLNTGSDVEEAVADALKKPARRRYESYGMHSDDDANSDASSACSERSYSSRNGSIPTYMRQTEDVAEVLNRCASSNWSERKEGLLGLQNLLKNQRTLSRVELKRLCEIFTRMFADPHGKRVFSMFLETLVDFIQVHKDDLQDWLFVLLTQLLKKMGADLLGSVQAKVQKALDVTRESFPNDLQFNILMRFTVDQTQTPSLKVKVAILKYIETLAKQMDPGDFINSSETRLAVSRVITWTTEPKSSDVRKAAQSVLISLFELNTPEFTMLLGALPKTFQDGATKLLHNHLRNTGNGTQSSMGSPLTRPTPRSPANWSSPLTSPTNTSQNTLSPSAFDYDTENMNSEDIYSSLRGVTEAIQNFSFRSQEDMNEPLKRDSKKDDGDSMCGGPGMSDPRAGGDATDSSQTALDNKASLLHSMPTHSSPRSRDYNPYNYSDSISPFNKSALKEAMFDDDADQFPDDLSLDHSDLVAELLKELSNHNERVEERKIALYELMKLTQEESFSVWDEHFKTILLLLLETLGDKEPTIRALALKVLREILRHQPARFKNYAELTVMKTLEAHKDPHKEVVRSAEEAASVLATSISPEQCIKVLCPIIQTADYPINLAAIKMQTKVIERVSKETLNLLLPEIMPGLIQGYDNSESSVRKACVFCLVAVHAVIGDELKPHLSQLTGSKMKLLNLYIKRAQTGSGGADPTTDVSGQS
percent colocalization with γ-TuC [12]: 72% | percent colocalization with γ-TuC [13]: 72%
